Results on 167 variants are retold here after the RNAGym collection of RNA variant scans (doi:10.7554/elife.90254).

B1: OR4K15 (parent)
chain: GUUAACGGUCAUAGGCCAUGGAAACUAGGAGCACCAUUUCGCUGCCAGUGAAGAAAUGAACAAAGAAAAUCUGGGCCAGGCAGGCAUCAAAAGAAAUAGUCUUGCGCUCAACCAGAAAGUCUGUAAUCAUUUUAAGGGUA

Variants of B1 are the subject of this series. In words: self-cleavage, relative activity (ratio to wild type); higher = more cleavage; in vitro, sequencing; the parent is a self-cleaving ribozyme.
For U37C G74A, the self-cleavage worked out at 0.31.
To A33C A140U belongs 1.4.
On to A23G U124A, for which the self-cleavage came to 0.25.
The value for G75C U122C was 0.12; that for U37G U100C was 1.67.
To A91U A117U belongs 1.15.
To C85A A125G belongs 0.72.
On to A24G A135U, for which the self-cleavage came to 1.33.
To A18G A22U belongs 1.95; to A30G C34A, 0.85; to A55G U97C, 1.27.
The value for A94C A126G was 0.79.
The value for A78C U103C was 0.14.
Turning to A92U A129G, the self-cleavage was determined as 1.13.
To A11G C61G belongs 1; to A5U A24G, 1.12; to U122C A134U, 1.75.
The value for C45U A68C was 1.95.
The value for U19C A140U was 1.21; that for A86G A91C was 0.64; that for A5G G80A was 0.43.
On to C45A A98U, for which the self-cleavage turned out to be 1.6.
The value for A82G A129U was 0.22; that for A22G A98G was 0.88.
To A129G A134G belongs 1.15; to A82U A134G, 0.16; to G31A A59G, 1.04.
The value for U37G A60G was 1.48; that for G21U U102C was 2.03.
Regarding U9A A114U, the self-cleavage is 0.07.
To U9A A114G belongs 0.33.
Consider G28A A52G, for which the self-cleavage was 1.9.
To U49C A118G belongs 0.35.
As for A78G U87C, the self-cleavage is 0.05.
The value for C40U A55G was 1.67.
To A5G A47G belongs 1.37; to A96G A135U, 2.17; to C34U G123A, 1.87.
The value for G44A G83A was 1.24; that for U124C U132C was 1.13; that for A24G A92G was 1.19.
Take C46U U127C: the self-cleavage is 0.86.
For the variant A27G A86U, the self-cleavage amounted to 1.34.
Turning to A5U, the self-cleavage was determined as 1.1.
The value for C81U U131C was 0.37.
To A11G A52C belongs 0.82; to A98G U102C, 2.44.
The value for A94G A114U was 0.04.
Consider G44A U122C, for which the self-cleavage amounted to 1.67.
The value for U43C G74C was 0.23; that for A60U A68G was 1.79; that for U122C A135G was 1.24.
To U87G A117G belongs 0.46; to A56G A116G, 0.66.
The value for A59G A63G was 1.4.
With U38A U97C, the self-cleavage amounted to 1.67.
To A18G U38C belongs 0.46; to A95G A118G, 0.75; to A11G A135U, 0.99.
To A23U A140C belongs 1.37.
A78U A117G: the self-cleavage came out at 0.36.
To G14A A67G belongs 1.66; to U9C A24G, 1.33.
To A92G A129U belongs 1.16; to A60G U124A, 0.75; to G29C U108A, 0.02.
To C16U C32G belongs 0.15.
As to U100G U103C, the self-cleavage was determined as 0.09.
To A59G U132A belongs 0.98; to G58A A111G, 0; to A62G U102C, 1.19.
The value for U19C C85G was 1.02.
The value for A116G A117U was 0.44; that for G65A was 1.5.
For the variant A30U A140G, the self-cleavage turned out to be 0.96.
The value for A66C A95G was 1.92; that for A36G U131C was 1.59; that for U43C U131C was 1.36.
A23G U103A: the self-cleavage came out at 0.75.
The value for A66G A116U was 0.7; that for C32U A95G was 2.11.
Take G48A G73A: the self-cleavage was 0.22.
The value for U70C A95G was 1.84; that for A60G A95C was 1.
To A22U U100C belongs 2.44; to G73U A110G, 0.03.
Regarding U39C C71A, the self-cleavage came to 0.38.
The value for A11G A91U was 1.22; that for U37C A95U was 1.73.
The value for C16G A135G was 0.74; that for A55G U127A was 1.65.
The value for A36G A90C was 1.15.
For C40U U97A, the self-cleavage amounted to 1.63.
Turning to U122C U127C, the self-cleavage worked out at 0.25.
For G31C U133C, the self-cleavage turned out to be 1.95.
As to A111C A135U, the self-cleavage came to 0.03.
To A82G G123A belongs 0.75; to A78U A135G, 0.3.
The value for U87G U122C was 0.68; that for A11U A111G was 0.06; that for A11U A111U was 0.06.
To U49A U108A belongs 0.02.
Consider A30G A67G, for which the self-cleavage amounted to 0.91.
To U70C U102A belongs 0.33; to A36G A82U, 0.1.
The value for A86G U108C was 0.02; that for A91G A111U was 0.03.
With U37C A60G, the self-cleavage is 0.54.
The value for C42A G79U was 0.02; that for U12C U100A was 0.63; that for A18G G53U was 1.66.
Consider G14A A33G, for which the self-cleavage turned out to be 0.87.
To U26A C81U belongs 0.19; to U12A A66G, 0.9; to U102C A118G, 1.31.
To G58A U130C belongs 0.82.
To A55G A126U belongs 0.86.
Regarding A24U A118G, the self-cleavage turned out to be 0.99.
To A63C A90G belongs 1.79; to U122C G123A, 1.6.
To A59U U122C belongs 0.69.
The value for U124C A135G was 1.33; that for A13U A116U was 0.25.
With G14A A56G, the self-cleavage was found to be 1.1.
For A60U C128U, the self-cleavage is 0.44.
On to A5U A96G, for which the self-cleavage worked out at 1.12.
The value for A66U U103C was 0.48; that for G65U A90G was 0.96.
Regarding U102C A125G, the self-cleavage amounted to 1.5.
Regarding A86G G137A, the self-cleavage was 1.83.
A18U A52U: the self-cleavage was determined as 1.6.
To A54G G106U belongs 0.02; to A23G A114U, 0.07; to A60G C109A, 0.21.
To C25U A47G belongs 1.76; to A78U A82G, 0.08.
The value for A91U U132A was 1.98; that for A54G A95G was 1.81; that for A51U U87A was 1.92.
Turning to A86G A114U, the self-cleavage was found to be 0.03.
To U43C belongs 1.29; to A91U U100A, 0.57.
Regarding A78G A135G, the self-cleavage is 0.19.
The value for A13U U39C was 1.04.
As to U19A U131C, the self-cleavage stood at 1.46.
The value for A23G A62G was 0.87.
Turning to G20U U72C, the self-cleavage came to 0.14.
To A67G U72A belongs 0.26; to A23G U139C, 1.26.
The value for U103A G138A was 0.68; that for G75A U103C was 0.06.
The value for A52G U97A was 1.33.
Turning to G41C U122A, the self-cleavage worked out at 1.57.
To U39A A126G belongs 1.59; to A11C A118U, 0.72; to A33G C81U, 0.17.
The value for A96U A135C was 1.11; that for A55C A78C was 0.25; that for U70A A117G was 0.03.
For the variant U19C U97A, the self-cleavage is 1.34.
The value for G14C U103C was 1.13; that for A5G A78U was 0.46; that for U37C A66G was 1.73.
The value for A55G U120C was 0.85.
The value for U3G U26C was 0.94; that for A23G U102C was 1.87.
As for U2A A126G, the self-cleavage is 0.81.
